Measured values as given in patent US20240016923A1.

Columns and labels:
[1] = target: secreted E2 ectodomain (sE2), HCV E2 residues 384-661 (Hepatitis C virus, isolate H77C) (UniProt P27958); experiment: SPR (Biacore T200); sE2 amine-coupled to a CM5 chip, CD81-LEL injected; 1:1 model, Kd = koff/kon
[2] = target: secreted E2 ectodomain (sE2), HCV E2 residues 384-661 (Hepatitis C virus, isolate H77C) (UniProt P27958); experiment: SPR (Biacore T200); sE2 amine-coupled to a CM5 chip, CD81-LEL injected; 1:1 model

B1: CD81 large extracellular loop (CD81-LEL) (receptor, UniProt P60033 113-201, looked up, not shown: small tags and cut ends)
chain: FVNKDQIAKDVKQFYDQALQQAVVDDDANNAKAVVKTFHETLDCCGSSTLTALTTSVLKNNLCPSGSNIISNLFKEDCHQKIDDLFSGK
- Kd [1]: 7 nM
- koff [2]: 0.00045 s⁻¹
- kon [2]: 65000 M⁻¹ s⁻¹
